Literature values as cited in paper PMC10083361.

Biological target: TRAF2 (Homo sapiens) (UniProt Q12933)
Sequence (Q12933 2-501): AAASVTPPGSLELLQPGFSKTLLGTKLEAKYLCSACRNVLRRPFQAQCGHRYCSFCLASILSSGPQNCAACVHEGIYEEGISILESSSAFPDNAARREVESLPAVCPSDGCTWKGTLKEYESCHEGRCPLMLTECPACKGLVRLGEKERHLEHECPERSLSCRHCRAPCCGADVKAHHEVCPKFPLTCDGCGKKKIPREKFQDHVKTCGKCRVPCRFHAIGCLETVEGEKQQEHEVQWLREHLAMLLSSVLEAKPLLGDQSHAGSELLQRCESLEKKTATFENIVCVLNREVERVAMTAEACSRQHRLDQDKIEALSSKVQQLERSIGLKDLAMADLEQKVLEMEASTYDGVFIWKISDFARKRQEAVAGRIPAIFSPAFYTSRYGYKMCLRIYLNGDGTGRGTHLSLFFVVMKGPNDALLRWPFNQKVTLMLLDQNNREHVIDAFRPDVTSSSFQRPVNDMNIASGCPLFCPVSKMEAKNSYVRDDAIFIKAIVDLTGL

Chain of 4-1BB (Q07011 24-255): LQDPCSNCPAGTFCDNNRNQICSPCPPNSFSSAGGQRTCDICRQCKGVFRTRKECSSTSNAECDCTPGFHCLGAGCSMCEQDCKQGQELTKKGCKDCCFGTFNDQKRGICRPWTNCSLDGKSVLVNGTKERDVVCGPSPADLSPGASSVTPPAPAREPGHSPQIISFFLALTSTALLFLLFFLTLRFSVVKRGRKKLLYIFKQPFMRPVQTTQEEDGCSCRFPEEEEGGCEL

**Q.** With 4-1BB (from UniProt Q07011) as the substance, how does the Kd read?
**A.** 1000 µM
